Measured values published in patent US20260000597A1 (priority 2018, published 2026).

Target: AchR (Homo sapiens, UniProt P02708)
Assay: ELISA of screened peptide phages on AchR versus streptavidin (OD450)
Assay type: binding
Settings: absorbance at 450 nm, Spep-2 positive control
How it was run: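 Reported as the ratio of AchR to streptavidin OD450, with TMB read-out after HRP anti-M13 detection. Wells coated with 5 μg/ml target overnight at 4 °C and BSA-blocked, then incubated 1 h at 30 °C with helper-rescued phage from individual plaques.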

[1] = ELISA of selected 11-mer (L2) peptide phages on AchR
[2] = ELISA of selected 14-mer (L3) peptide phages on AchR

Chain of AchR (P02708 21-457): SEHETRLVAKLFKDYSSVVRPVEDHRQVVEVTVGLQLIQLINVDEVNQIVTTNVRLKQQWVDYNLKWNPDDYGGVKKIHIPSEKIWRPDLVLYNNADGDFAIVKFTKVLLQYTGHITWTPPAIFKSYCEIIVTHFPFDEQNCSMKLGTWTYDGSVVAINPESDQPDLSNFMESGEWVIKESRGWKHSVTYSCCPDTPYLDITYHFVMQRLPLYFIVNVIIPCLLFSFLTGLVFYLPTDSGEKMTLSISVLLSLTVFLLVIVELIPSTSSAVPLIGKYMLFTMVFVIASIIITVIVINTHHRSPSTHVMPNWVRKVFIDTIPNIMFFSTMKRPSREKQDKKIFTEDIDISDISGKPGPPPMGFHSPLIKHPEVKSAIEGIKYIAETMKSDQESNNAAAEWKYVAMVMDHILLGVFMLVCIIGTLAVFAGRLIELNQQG

Substance | OD [1] | OD [2]
L2-172 (CTWRGRRPHDK; AchR binding peptide) [Peptide L2-172] | 0.685 | 
L2-173 (SWAKARKLVHR; AchR binding peptide) [Peptide L2-173] | 0.705 | 
L2-174 (PLFKSRRAYVR; AchR binding peptide) [Peptide L2-174] | 0.693 | 
L2-175 (CVMRCRRSEDK; AchR binding peptide) [Peptide L2-175] | 0.65 | 
L2-176 (WWHKHRRAQSK; AchR binding peptide) [Peptide L2-176] | 0.574 | 
L2-177 (LNSKPRRVEFK; AchR binding peptide) [Peptide L2-177] | 0.768 | 
L2-178 (VPYRHRRMQFK; AchR binding peptide) [Peptide L2-178] | 0.718 | 
L2-179 (GIAKSKRNAGR; AchR binding peptide) [Peptide L2-179] | 0.716 | 
L2-180 (DPEKWRKFYDR; AchR binding peptide) [Peptide L2-180] | 0.744 | 
L2-181 (PGARCRKQDVK; AchR binding peptide) [Peptide L2-181] | 0.749 | 
L2-182 (HEQRPKKGQQK; AchR binding peptide) [Peptide L2-182] | 0.681 | 
L2-183 (TCDRARKESFR; AchR binding peptide) [Peptide L2-183] | 0.688 | 
L2-184 (MHQRERRNFVK; AchR binding peptide) [Peptide L2-184] | 0.736 | 
L2-185 (FITRFRKMGEK; AchR binding peptide) [Peptide L2-185] | 0.742 | 
L2-186 (PNWKVRRFGDK; AchR binding peptide) [Peptide L2-186] | 0.683 | 
L2-187 (TAAKWKKIIMK; AchR binding peptide) [Peptide L2-187] | 0.731 | 
L2-188 (CLWRLRKDNGR; AchR binding peptide) [Peptide L2-188] | 0.73 | 
L2-189 (AHIKSRKVWSR; AchR binding peptide) [Peptide L2-189] | 0.696 | 
L2-190 (NLVKSKKVEEK; AchR binding peptide) [Peptide L2-190] | 0.721 | 
L2-191 (PDSRLKKHEAK; AchR binding peptide) [Peptide L2-191] | 0.689 | 
L2-192 (EHVKLKRLDFR; AchR binding peptide) [Peptide L2-192] | 0.685 | 

Substance | OD [1] | OD [2]
L2-193 (PALRMRRWCQK; AchR binding peptide) [Peptide L2-193] | 0.705 | 
L2-194 (HLEKHRRCEFK; AchR binding peptide) [Peptide L2-194] | 0.693 | 
L2-195 (CQAKTRKAEDR; AchR binding peptide) [Peptide L2-195] | 0.65 | 
L2-196 (QNMRMKRFIQR; AchR binding peptide) [Peptide L2-196] | 0.574 | 
L2-197 (CPYRIRRGPGK; AchR binding peptide) [Peptide L2-197] | 0.768 | 
L2-198 (DIYKGKRTLVK; AchR binding peptide) [Peptide L2-198] | 0.718 | 
L2-199 (EICKNRKPANR; AchR binding peptide) [Peptide L2-199] | 0.716 | 
L2-200 (QGMKLKRIWSK; AchR binding peptide) [Peptide L2-200] | 0.744 | 
L3-1 (ALGRTKRLHMRVHV; AchR binding peptide) [Peptide L3-1] |  | 0.853
L3-2 (SFYKERKCQFRSGL; AchR binding peptide) [Peptide L3-2] |  | 0.841
L3-3 (SGVRYRKWWIRSVV; AchR binding peptide) [Peptide L3-3] |  | 0.88
L3-4 (MPQKLKKLDIRNHN; AchR binding peptide) [Peptide L3-4] |  | 0.905
L3-5 (NEDRGKRPHIRVLG; AchR binding peptide) [Peptide L3-5] |  | 0.82
L3-6 (EFVKLRKARLRGPQ; AchR binding peptide) [Peptide L3-6] |  | 0.77
L3-7 (EGDKFRRHDIKYNF; AchR binding peptide) [Peptide L3-7] |  | 0.803
L3-8 (PICRWKRAPFKWYF; AchR binding peptide) [Peptide L3-8] |  | 0.777
L3-9 (NCNRFRRTIVRHCH; AchR binding peptide) [Peptide L3-9] |  | 0.725
L3-10 (AHGKDRRYVEKLEV; AchR binding peptide) [Peptide L3-10] |  | 0.769
L3-11 (FMQKCKKWWDRAVF; AchR binding peptide) [Peptide L3-11] |  | 0.8
L3-12 (DPPKKRKSLLRRVS; AchR binding peptide) [Peptide L3-12] |  | 0.882
L3-13 (YCTRIRREGMKGSE; AchR binding peptide) [Peptide L3-13] |  | 0.862

Substance | OD [1] | OD [2]
L3-14 (FPGKSKKQWHRLWP; AchR binding peptide) [Peptide L3-14] |  | 0.892
L3-15 (YEPRFKRPYGKWCH; AchR binding peptide) [Peptide L3-15] |  | 0.859
L3-16 (DYLRSRKMEERFQE; AchR binding peptide) [Peptide L3-16] |  | 0.797
L3-17 (VGPKFRKNHRRQNR; AchR binding peptide) [Peptide L3-17] |  | 0.812
L3-18 (EYQKCKKPSFRLTM; AchR binding peptide) [Peptide L3-18] |  | 0.806
L3-19 (YMKKKRKSLLRTSL; AchR binding peptide) [Peptide L3-19] |  | 0.796
L3-20 (CCFKLKKAYNKGPF; AchR binding peptide) [Peptide L3-20] |  | 0.755
L3-21 (NPMKLRKAETKHNV; AchR binding peptide) [Peptide L3-21] |  | 0.843
L3-22 (HSLKTRKSAFKSNT; AchR binding peptide) [Peptide L3-22] |  | 0.83
L3-23 (QYHKVRKLWFRVEP; AchR binding peptide) [Peptide L3-23] |  | 0.799
L3-24 (FVRKKRKSLLRDTR; AchR binding peptide) [Peptide L3-24] |  | 0.846
L3-25 (CFQRKRKSLLRVLR; AchR binding peptide) [Peptide L3-25] |  | 0.807
L3-26 (VPMKYRRCGNRQSN; AchR binding peptide) [Peptide L3-26] |  | 0.802
L3-29 (CASKPRRTYLRAAN; AchR binding peptide) [Peptide L3-29] |  | 0.789
L3-30 (WAHKCKKPGQRIPP; AchR binding peptide) [Peptide L3-30] |  | 0.771
L3-31 (LSDKKRKSLLRYDY; AchR binding peptide) [Peptide L3-31] |  | 0.763
L3-32 (CATRGKKVFSKRTM; AchR binding peptide) [Peptide L3-32] |  | 0.845
L3-33 (LRQRSKRVLEKLRP; AchR binding peptide) [Peptide L3-33] |  | 0.751
L3-34 (LGWKKRKSLLRRHV; AchR binding peptide) [Peptide L3-34] |  | 0.74
L3-35 (LQCKYRRGSDKQPQ; AchR binding peptide) [Peptide L3-35] |  | 0.747
L3-36 (AFSRIKRGVLKLLS; AchR binding peptide) [Peptide L3-36] |  | 0.787
